Assay results published in patent US20180153986A1 (BRIGHAM AND WOMEN S HOSPITAL, published 2018).

Biological target: T1, human CEACAM1 (carcinoembryonic antigen related cell adhesion molecule 1) (human, UniProt P13688 35-526, limits assumed)
T1 construct: also called hCEACAM1; BGP
T1 sequence: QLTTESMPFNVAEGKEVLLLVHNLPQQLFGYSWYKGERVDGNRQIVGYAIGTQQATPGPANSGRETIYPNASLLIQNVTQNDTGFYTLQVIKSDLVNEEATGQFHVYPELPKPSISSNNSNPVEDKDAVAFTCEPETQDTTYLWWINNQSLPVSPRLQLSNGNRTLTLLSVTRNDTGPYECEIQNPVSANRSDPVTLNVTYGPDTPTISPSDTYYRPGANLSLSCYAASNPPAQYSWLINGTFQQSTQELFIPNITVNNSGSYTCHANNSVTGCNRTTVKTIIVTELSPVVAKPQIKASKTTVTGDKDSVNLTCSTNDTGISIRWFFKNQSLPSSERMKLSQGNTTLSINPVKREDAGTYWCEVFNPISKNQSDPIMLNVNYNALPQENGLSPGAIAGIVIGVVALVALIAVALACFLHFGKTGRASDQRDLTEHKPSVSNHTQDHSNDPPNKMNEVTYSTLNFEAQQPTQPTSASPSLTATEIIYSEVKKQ
Experiment: method not described ('as demonstrated herein'); support is structural prediction and co-expression

- binding result: binds
B1: human TIM-1 (T-cell immunoglobulin and mucin domain-containing protein 1) (receptor)
chain: SVKVGGEAGPSVTLPCHYSGAVTSMCWNRGSCSLFTCQNGIVWTNGTHVTYRKDTRYKLLGDLSRRDVSLTIENTAVSDSGVYCCRVEHRGWFNDMKITVSLEIVPPKVTTTPIVTTVPTVTTVRTSTTVPTTTTVPTTTVPTTMSIPTTTTVLTTMTVSTTTSVPTTTSIPTTTSVPVTTTVSTFVPPMPLPRQNHEPVATSPSSPQPAETHPTTLQGAIRREPTSSPLYSYTTDGNDTVTESSDGLWNNNQTQLFLEHSLLTANTTKGIYAGVCISVLVLLALLGVIIAKKYFFKKEVQQLSVSFSSLQIKALQNAVEKEVQAEDNIYIENSLYATD
notes: also called HAVCR; HAVCR-1
